Measured values taken from FireProtDB (doi:10.1021/bi0027783).
Values joined by “and” are separate entries in the source; they are usually repeats but may differ in a detail not shown here. Equal entries are not always repeated.

Settings: Allium sativum, reversible: yes, whole UniProt chain shown; for denaturant m value / denaturant midpoint (higher = more stable) / unfolding free energy: GdnHCl
[1] = pH 5, Thermal, DSC, citrate phosphate 20 mM
[2] = pH 5.5, Thermal, DSC, citrate phosphate 20 mM
[3] = pH 5.8, Thermal, DSC, citrate phosphate 20 mM
[4] = pH 6, Thermal, DSC, citrate phosphate 20 mM
[5] = pH 7.5, 50.7 °C, Thermal, CD, PBS 20 mM
[6] = pH 7.5, 53.3 °C, Thermal, CD, PBS 20 mM
[7] = pH 7.5, 55.7 °C, Thermal, CD, PBS 20 mM
[8] = pH 7.5, 56.3 °C, Thermal, CD, PBS 20 mM
[9] = pH 7.5, 60.8 °C, Thermal, CD, PBS 20 mM
[10] = pH 7.5, 64.2 °C, Thermal, CD, PBS 20 mM
[11] = pH 7.5, 66.4 °C, Thermal, CD, PBS 20 mM

RNILMNGEGLYAGQSLDVEPYHFIMQEDCN [wild type]
Tm [1]: 75.5 °C
unfolding enthalpy (van 't Hoff) [1]: 132 kcal/mol
Tm [2]: 74.6 °C
unfolding enthalpy (van 't Hoff) [2]: 130 kcal/mol
Tm [3]: 73.9 °C
unfolding enthalpy (van 't Hoff) [3]: 128 kcal/mol
Tm [4]: 73.1 °C
unfolding enthalpy (van 't Hoff) [4]: 125 kcal/mol
Tm (pH 7, Thermal, DSC, PBS 20 mM): 70.9 °C
unfolding enthalpy (van 't Hoff) (pH 7, Thermal, DSC, PBS 20 mM): 118 kcal/mol
denaturant m value (pH 7.5, 10 °C, CD, PBS 20 mM): 2.61 kcal/mol/M
denaturant midpoint (higher = more stable) (pH 7.5, 10 °C, CD, PBS 20 mM): 4.9 M
unfolding free energy (pH 7.5, 10 °C, CD, PBS 20 mM): 12.8 kcal/mol
denaturant m value (pH 7.5, 15 °C, CD, PBS 20 mM): 2.23 kcal/mol/M
denaturant midpoint (higher = more stable) (pH 7.5, 15 °C, CD, PBS 20 mM): 5.84 M
unfolding free energy (pH 7.5, 15 °C, CD, PBS 20 mM): 13 kcal/mol
denaturant m value (pH 7.5, 20 °C, CD, PBS 20 mM): 2.25 kcal/mol/M
denaturant midpoint (higher = more stable) (pH 7.5, 20 °C, CD, PBS 20 mM): 5.84 M
unfolding free energy (pH 7.5, 20 °C, CD, PBS 20 mM): 13.1 kcal/mol
denaturant m value (pH 7.5, 25 °C, CD, PBS 20 mM): 2.3 kcal/mol/M
denaturant midpoint (higher = more stable) (pH 7.5, 25 °C, CD, PBS 20 mM): 5.6 M
unfolding free energy (pH 7.5, 25 °C, CD, PBS 20 mM): 12.9 kcal/mol
denaturant m value (pH 7.5, 30 °C, CD, PBS 20 mM): 2.64 kcal/mol/M
denaturant midpoint (higher = more stable) (pH 7.5, 30 °C, CD, PBS 20 mM): 4.62 M
unfolding free energy (pH 7.5, 30 °C, CD, PBS 20 mM): 12.2 kcal/mol
denaturant m value (pH 7.5, 35 °C, CD, PBS 20 mM): 3.21 kcal/mol/M
denaturant midpoint (higher = more stable) (pH 7.5, 35 °C, CD, PBS 20 mM): 3.4 M
unfolding free energy (pH 7.5, 35 °C, CD, PBS 20 mM): 10.9 kcal/mol
denaturant m value (pH 7.5, 40 °C, CD, PBS 20 mM): 4 kcal/mol/M
denaturant midpoint (higher = more stable) (pH 7.5, 40 °C, CD, PBS 20 mM): 2.41 M
unfolding free energy (pH 7.5, 40 °C, CD, PBS 20 mM): 9.65 kcal/mol
denaturant m value (pH 7.5, 45 °C, CD, PBS 20 mM): 3.89 kcal/mol/M
denaturant midpoint (higher = more stable) (pH 7.5, 45 °C, CD, PBS 20 mM): 1.99 M
unfolding free energy (pH 7.5, 45 °C, CD, PBS 20 mM): 7.74 kcal/mol
denaturant m value (pH 7.5, 50 °C, CD, PBS 20 mM): 3.83 kcal/mol/M
denaturant midpoint (higher = more stable) (pH 7.5, 50 °C, CD, PBS 20 mM): 1.5 M
unfolding free energy (pH 7.5, 50 °C, CD, PBS 20 mM): 5.75 kcal/mol
heat capacity change of unfolding [5]: 3.64 kcal/mol/K
unfolding enthalpy (van 't Hoff) [5]: 115 kcal/mol
heat capacity change of unfolding [6]: 3.59 kcal/mol/K
unfolding enthalpy (van 't Hoff) [6]: 118 kcal/mol
heat capacity change of unfolding [7]: 3.5 kcal/mol/K
unfolding enthalpy (van 't Hoff) [7]: 124 kcal/mol
heat capacity change of unfolding [8]: 3.4 kcal/mol/K
unfolding enthalpy (van 't Hoff) [8]: 136 kcal/mol
heat capacity change of unfolding [9]: 3.32 kcal/mol/K
unfolding enthalpy (van 't Hoff) [9]: 142 kcal/mol
heat capacity change of unfolding [10]: 3.25 kcal/mol/K
unfolding enthalpy (van 't Hoff) [10]: 153 kcal/mol
heat capacity change of unfolding [11]: 3.2 kcal/mol/K
unfolding enthalpy (van 't Hoff) [11]: 173 kcal/mol
unfolding enthalpy (calorimetric) (pH 7.5, Thermal, DSC, PBS 20 mM): 96.4 kcal/mol and 116 kcal/mol and 118 kcal/mol
Tm (pH 8, Thermal, DSC, PBS 20 mM): 69.2 °C
unfolding enthalpy (van 't Hoff) (pH 8, Thermal, DSC, PBS 20 mM): 113 kcal/mol
